This note sets out measurements from patent US20260184777A1 (BEIJING SUNGEN BIOMEDICAL TECHNOLOGY, published 2026).

Sequences and labels used below:
T1: human S100A8/A9 heterodimeric antigen, His-tagged (hS100A8/A9-His) (human, UniProt P05109 1-93; P06702 1-114)
T1 sequence 1: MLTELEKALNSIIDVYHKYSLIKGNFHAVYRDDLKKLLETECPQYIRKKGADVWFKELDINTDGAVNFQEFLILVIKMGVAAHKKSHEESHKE
T1 sequence 2: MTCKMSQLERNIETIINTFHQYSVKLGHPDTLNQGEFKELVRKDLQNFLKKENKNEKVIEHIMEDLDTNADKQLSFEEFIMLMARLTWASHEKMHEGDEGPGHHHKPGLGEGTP

B1: CM-50 (antibody, human IgG4 S228P, lambda, V domains shown)
VH: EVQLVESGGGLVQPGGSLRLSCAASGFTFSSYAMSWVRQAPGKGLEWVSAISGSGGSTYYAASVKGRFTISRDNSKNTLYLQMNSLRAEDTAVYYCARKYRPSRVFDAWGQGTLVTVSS
VL: SYELTQPPSVSVAPGQTARITCSGDALGDKYASWYQQKPGQAPVLVIYEDAKRPSGIPERFSGSNSGNTATLTISGTQAEDEADYYCQSNDADAVWVFGGGTKLTVLG
B2: CM-56 (antibody, human IgG4 S228P, lambda, V domains shown)
VH: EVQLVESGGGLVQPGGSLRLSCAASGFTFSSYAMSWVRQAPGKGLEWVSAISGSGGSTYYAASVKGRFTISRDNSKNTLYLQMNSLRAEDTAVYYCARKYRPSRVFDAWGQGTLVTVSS
VL: SYELTQPPSVSVAPGQTARITCSGDALGDKYASWYQQKPGQAPVLVIYEDAKRPSGIPERFSGSNSGNTATLTISGTQAEDEADYYCQSNDIDAVWVFGGGTKLTVLG
B3: CM-59 (antibody, human IgG4 S228P, lambda, V domains shown)
VH: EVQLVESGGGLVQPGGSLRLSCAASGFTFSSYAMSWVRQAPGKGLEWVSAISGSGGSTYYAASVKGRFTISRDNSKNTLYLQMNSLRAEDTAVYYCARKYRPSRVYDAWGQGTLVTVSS
VL: SYELTQPPSVSVAPGQTARITCSGDALGDKYASWYQQKPGQAPVLVIYEDAKRPSGIPERFSGSNSGNTATLTISGTQAEDEADYYCQSNDIDAVWVFGGGTKLTVLG
B4: CM-61 (antibody, human IgG4 S228P, lambda, V domains shown)
VH: EVQLVESGGGLVQPGGSLRLSCAASGFTYSSYAMSWVRQAPGKGLEWVSAISGSGGSTYYAASVKGRFTISRDNSKNTLYLQMNSLRAEDTAVYYCARKYRPSRVFDAWGQGTLVTVSS
VL: SYELTQPPSVSVAPGQTARITCSGDALGDKYASWYQQKPGQAPVLVIYQDAKRPSGIPERFSGSNSGNTATLTISGTQAEDEADYYCQSNDADAVWVFGGGTKLTVLG
B5: CM-64 (antibody, human IgG4 S228P, lambda, V domains shown)
VH: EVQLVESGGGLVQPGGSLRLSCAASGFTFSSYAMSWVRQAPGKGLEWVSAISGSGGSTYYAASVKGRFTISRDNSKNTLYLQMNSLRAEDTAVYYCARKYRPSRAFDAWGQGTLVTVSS
VL: SYELTQPPSVSVAPGQTARITCSGDALGDKFASWYQQKPGQAPVLVIYEDAKRPSGIPERFSGSNSGNTATLTISGTQAEDEADYYCQSNDADAVWVFGGGTKLTVLG
B6: CM-49 (antibody, human IgG4 S228P, lambda, V domains shown)
VH: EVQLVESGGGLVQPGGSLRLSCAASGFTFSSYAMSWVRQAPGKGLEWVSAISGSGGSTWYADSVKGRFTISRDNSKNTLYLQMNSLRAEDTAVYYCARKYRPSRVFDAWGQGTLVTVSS
VL: SYELTQPPSVSVAPGQTARITCSGDALGDKYASWYQQKPGQAPVLVIYEDAKRPSGIPERFSGSNSGNTATLTISGTQAEDEADYYCQSNDIDSVWVFGGGTKLTVLG
B7: CM-52 (antibody, human IgG4 S228P, lambda, V domains shown)
VH: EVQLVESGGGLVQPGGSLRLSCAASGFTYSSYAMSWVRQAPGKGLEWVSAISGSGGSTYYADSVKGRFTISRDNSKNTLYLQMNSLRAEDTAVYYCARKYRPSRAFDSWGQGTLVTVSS
VL: SYELTQPPSVSVAPGQTARITCSGDALGDKYASWYQQKPGQAPVLVIYEDAKRPSGIPERFSGSNSGNTATLTISGTQAEDEADYYCQSNDIDSVWVFGGGTKLTVLG
B8: CM-46 (antibody, human IgG4 S228P, lambda, V domains shown)
VH: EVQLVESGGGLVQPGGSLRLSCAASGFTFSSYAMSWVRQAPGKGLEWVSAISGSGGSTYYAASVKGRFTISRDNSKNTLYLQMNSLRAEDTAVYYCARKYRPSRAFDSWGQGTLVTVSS
VL: SYELTQPPSVSVAPGQTARITCSGDALGDKFASWYQQKPGQAPVLVIYEDSKRPSGIPERFSGSNSGNTATLTISGTQAEDEADYYCQSNDADSVWVFGGGTKLTVLG
B9: CM-48 (antibody, human IgG4 S228P, lambda, V domains shown)
VH: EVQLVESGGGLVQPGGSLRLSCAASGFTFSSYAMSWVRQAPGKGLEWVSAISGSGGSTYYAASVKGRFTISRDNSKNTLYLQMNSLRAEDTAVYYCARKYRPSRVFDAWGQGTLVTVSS
VL: SYELTQPPSVSVAPGQTARITCSGDALGDKFASWYQQKPGQAPVLVIYEDSKRPSGIPERFSGSNSGNTATLTISGTQAEDEADYYCQSNDIDSVWVFGGGTKLTVLG
B10: CM-40 (antibody, human IgG4 S228P, lambda, V domains shown)
VH: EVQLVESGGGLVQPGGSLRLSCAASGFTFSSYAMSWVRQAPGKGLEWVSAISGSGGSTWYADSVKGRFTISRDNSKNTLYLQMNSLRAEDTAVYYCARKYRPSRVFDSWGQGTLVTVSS
VL: SYELTQPPSVSVAPGQTARITCSGDALGDKYASWYQQKPGQAPVLVIYEDSKRPSGIPERFSGSNSGNTATLTISGTQAEDEADYYCQSNDVDSVWVFGGGTKLTVLG
B11: CM-47 (antibody, human IgG4 S228P, lambda, V domains shown)
VH: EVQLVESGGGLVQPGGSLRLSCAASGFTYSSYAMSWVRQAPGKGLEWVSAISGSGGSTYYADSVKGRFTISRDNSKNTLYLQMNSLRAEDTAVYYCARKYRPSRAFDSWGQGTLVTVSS
VL: SYELTQPPSVSVAPGQTARITCSGDALGDKYASWYQQKPGQAPVLVIYEDSKRPSGIPERFSGSNSGNTATLTISGTQAEDEADYYCQSNDIDSVWVFGGGTKLTVLG
B12: CM-53 (antibody, human IgG4 S228P, lambda, V domains shown)
VH: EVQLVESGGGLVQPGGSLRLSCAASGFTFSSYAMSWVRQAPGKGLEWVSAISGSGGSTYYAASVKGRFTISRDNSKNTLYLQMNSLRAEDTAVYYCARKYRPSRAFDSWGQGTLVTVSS
VL: SYELTQPPSVSVAPGQTARITCSGDALGDKYASWYQQKPGQAPVLVIYEDAKRPSGIPERFSGSNSGNTATLTISGTQAEDEADYYCQSNDADAVWVFGGGTKLTVLG
B13: CM-41 (antibody, human IgG4 S228P, lambda, V domains shown)
VH: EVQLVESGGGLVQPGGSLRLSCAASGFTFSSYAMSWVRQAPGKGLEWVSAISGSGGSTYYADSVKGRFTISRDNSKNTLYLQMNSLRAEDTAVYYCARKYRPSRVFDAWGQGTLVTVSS
VL: SYELTQPPSVSVAPGQTARITCSGDALGDKYASWYQQKPGQAPVLVIYEDSKRPSGIPERFSGSNSGNTATLTISGTQAEDEADYYCQSNDADAVWVFGGGTKLTVLG
B14: CM-58 (antibody, human IgG4 S228P, lambda, V domains shown)
VH: EVQLVESGGGLVQPGGSLRLSCAASGFTFSSYAMSWVRQAPGKGLEWVSAISGSGGSTWYAASVKGRFTISRDNSKNTLYLQMNSLRAEDTAVYYCARKYRPSRVFDAWGQGTLVTVSS
VL: SYELTQPPSVSVAPGQTARITCSGDALGDKYASWYQQKPGQAPVLVIYEDAKRPSGIPERFSGSNSGNTATLTISGTQAEDEADYYCQSNDIDAVWVFGGGTKLTVLG
B15: CM-43 (antibody, human IgG4 S228P, lambda, V domains shown)
VH: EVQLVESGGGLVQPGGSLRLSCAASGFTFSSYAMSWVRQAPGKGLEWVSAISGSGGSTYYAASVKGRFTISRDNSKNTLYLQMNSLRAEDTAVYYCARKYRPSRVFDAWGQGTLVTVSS
VL: SYELTQPPSVSVAPGQTARITCSGDALGDKYASWYQQKPGQAPVLVIYEDAKRPSGIPERFSGSNSGNTATLTISGTQAEDEADYYCQSNDADSVWVFGGGTKLTVLG
B16: CM-60 (antibody, human IgG4 S228P, lambda, V domains shown)
VH: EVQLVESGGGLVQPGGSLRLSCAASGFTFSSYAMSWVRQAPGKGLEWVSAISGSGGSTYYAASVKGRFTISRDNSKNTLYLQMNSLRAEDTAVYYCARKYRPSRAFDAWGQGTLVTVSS
VL: SYELTQPPSVSVAPGQTARITCSGDALGDKYASWYQQKPGQAPVLVIYEDAKRPSGIPERFSGSNSGNTATLTISGTQAEDEADYYCQSNDIDAVWVFGGGTKLTVLG
B17: CM-55 (antibody, human IgG4 S228P, lambda, V domains shown)
VH: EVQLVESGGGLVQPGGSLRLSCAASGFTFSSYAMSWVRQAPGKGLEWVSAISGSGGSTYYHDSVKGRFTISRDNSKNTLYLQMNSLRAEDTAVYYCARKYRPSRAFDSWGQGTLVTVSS
VL: SYELTQPPSVSVAPGQTARITCSGDALGDKFASWYQQKPGQAPVLVIYEDSKRPSGIPERFSGSNSGNTATLTISGTQAEDEADYYCQSNDADAVWVFGGGTKLTVLG
B18: CM-42 (antibody, human IgG4 S228P, lambda, V domains shown)
VH: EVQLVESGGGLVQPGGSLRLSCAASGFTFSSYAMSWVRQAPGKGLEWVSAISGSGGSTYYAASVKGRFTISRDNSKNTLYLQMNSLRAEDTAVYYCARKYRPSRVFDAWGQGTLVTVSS
VL: SYELTQPPSVSVAPGQTARITCSGDALGDKYASWYQQKPGQAPVLVIYEDSKRPSGIPERFSGSNSGNTATLTISGTQAEDEADYYCQSNDIDSVWVFGGGTKLTVLG
B19: CM-66 (antibody, human IgG4 S228P, lambda, V domains shown)
VH: EVQLVESGGGLVQPGGSLRLSCAASGFTYSSYAMSWVRQAPGKGLEWVSAISGSGGSTYYAASVKGRFTISRDNSKNTLYLQMNSLRAEDTAVYYCARKYRPSRAFDAWGQGTLVTVSS
VL: SYELTQPPSVSVAPGQTARITCSGDALGDKYASWYQQKPGQAPVLVIYEDAKRPSGIPERFSGSNSGNTATLTISGTQAEDEADYYCQSNDIDAVWVFGGGTKLTVLG
B20: CM-44 (antibody, human IgG4 S228P, lambda, V domains shown)
VH: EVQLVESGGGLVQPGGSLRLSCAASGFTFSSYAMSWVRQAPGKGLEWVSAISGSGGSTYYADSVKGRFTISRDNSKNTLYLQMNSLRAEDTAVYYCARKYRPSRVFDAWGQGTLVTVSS
VL: SYELTQPPSVSVAPGQTARITCSGDALGDKYASWYQQKPGQAPVLVIYEDAKRPSGIPERFSGSNSGNTATLTISGTQAEDEADYYCQSNDADAVWVFGGGTKLTVLG
B21: CM-45 (antibody, human IgG4 S228P, lambda, V domains shown)
VH: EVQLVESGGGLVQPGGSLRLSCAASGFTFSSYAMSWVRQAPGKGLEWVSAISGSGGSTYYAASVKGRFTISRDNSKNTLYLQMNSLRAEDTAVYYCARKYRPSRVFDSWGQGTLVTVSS
VL: SYELTQPPSVSVAPGQTARITCSGDALGDKYASWYQQKPGQAPVLVIYEDAKRPSGIPERFSGSNSGNTATLTISGTQAEDEADYYCQSNDADAVWVFGGGTKLTVLG
B22: CM-54 (antibody, human IgG4 S228P, lambda, V domains shown)
VH: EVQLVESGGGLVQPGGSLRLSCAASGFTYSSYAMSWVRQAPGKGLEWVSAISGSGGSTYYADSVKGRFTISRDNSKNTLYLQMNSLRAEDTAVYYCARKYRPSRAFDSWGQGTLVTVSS
VL: SYELTQPPSVSVAPGQTARITCSGDALGDKFASWYQQKPGQAPVLVIYEDSKRPSGIPERFSGSNSGNTATLTISGTQAEDEADYYCQSNDIDSVWVFGGGTKLTVLG
B23: CM-63 (antibody, human IgG4 S228P, lambda, V domains shown)
VH: EVQLVESGGGLVQPGGSLRLSCAASGFTFSSYAMSWVRQAPGKGLEWVSAISGSGGSTWYAASVKGRFTISRDNSKNTLYLQMNSLRAEDTAVYYCARKYRPSRVFDAWGQGTLVTVSS
VL: SYELTQPPSVSVAPGQTARITCSGDALGDKYASWYQQKPGQAPVLVIYEDAKRPSGIPERFSGSNSGNTATLTISGTQAEDEADYYCQSNDVDAVWVFGGGTKLTVLG
B24: CM-62 (antibody, human IgG4 S228P, lambda, V domains shown)
VH: EVQLVESGGGLVQPGGSLRLSCAASGFTFSSYVMSWVRQAPGKGLEWVSAISGSGGSTYYAASVKGRFTISRDNSKNTLYLQMNSLRAEDTAVYYCARKYRPSRVFDAWGQGTLVTVSS
VL: SYELTQPPSVSVAPGQTARITCSGDALGDKYASWYQQKPGQAPVLVIYEDARRPSGIPERFSGSNSGNTATLTISGTQAEDEADYYCQSNDADAVWVFGGGTKLTVLG
B25: CM-57 (antibody, human IgG4 S228P, lambda, V domains shown)
VH: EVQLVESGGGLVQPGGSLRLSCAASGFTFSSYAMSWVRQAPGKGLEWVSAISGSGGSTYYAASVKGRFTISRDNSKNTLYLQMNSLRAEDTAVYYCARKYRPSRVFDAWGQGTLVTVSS
VL: SYELTQPPSVSVAPGQTARITCSGDALGDKFASWYQQKPGQAPVLVIYEDAKRPSGIPERFSGSNSGNTATLTISGTQAEDEADYYCQSNDIDAVWVFGGGTKLTVLG
B26: CM-65 (antibody, human IgG4 S228P, lambda, V domains shown)
VH: EVQLVESGGGLVQPGGSLRLSCAASGFTYSSYAMSWVRQAPGKGLEWVSAISGSGGSTYYAASVKGRFTISRDNSKNTLYLQMNSLRAEDTAVYYCARKYRPSRVFDAWGQGTLVTVSS
VL: SYELTQPPSVSVAPGQTARITCSGDALGDKYASWYQQKPGQAPVLVIYQDAKRPSGIPERFSGSNSGNTATLTISGTQAEDEADYYCQSNDIDAVWVFGGGTKLTVLG

The target of the assay is T1, human S100A8/A9 heterodimeric antigen, …. Briefly: cell-based or functional assay.
For the molecule B1, the “Relative IC50 (IC50 relative to CM-1), IL-6 release from hS100A8/A9-activated human PBMCs” value (from here on “Relative IC50”) was 0.679 relative to CM-1.
For B2, the “Relative IC50” value was 1.12 relative to CM-1.
The same measure for B3: 1.04 relative to CM-1; for B4: 0.923 relative to CM-1; for B5: 0.5 relative to CM-1.
The same measure for B6: 0.617 relative to CM-1; for B7: 1.19 relative to CM-1.
For B8, the “Relative IC50” value is 1.51 relative to CM-1.
Consider B9, for which the “Relative IC50” value was 1.58 relative to CM-1.
The same measure for B10: 2.18 relative to CM-1; for B11: 2.12 relative to CM-1.
The same measure for B12: 0.357 relative to CM-1; for B13: 1.11 relative to CM-1.
The same measure for B14: 1.52 relative to CM-1.
B15: the “Relative IC50” value was 1.99 relative to CM-1.
Next, B16: 0.936 relative to CM-1; B17: 1.67 relative to CM-1.
The same measure for B18: 0.866 relative to CM-1.
For B19, the “Relative IC50” value was 0.694 relative to CM-1.
Next, B20: 1.44 relative to CM-1; B21: 2.09 relative to CM-1; B22: 0.997 relative to CM-1.
Turning to B23, the “Relative IC50” value is 1.33 relative to CM-1.
The same measure for B24: 1.58 relative to CM-1; for B25: 1.16 relative to CM-1; for B26: 0.618 relative to CM-1.
